Data: publication PMC3590443 (Nature structural & molecular biology, 2012)
Positions count from the first letter of the chain named. Numbers in names are those of the source.

T1: Nrp1_(1-4) P73A H74S (mouse, UniProt P97333 22-586, P73A | H74S)
T1 sequence (looked up): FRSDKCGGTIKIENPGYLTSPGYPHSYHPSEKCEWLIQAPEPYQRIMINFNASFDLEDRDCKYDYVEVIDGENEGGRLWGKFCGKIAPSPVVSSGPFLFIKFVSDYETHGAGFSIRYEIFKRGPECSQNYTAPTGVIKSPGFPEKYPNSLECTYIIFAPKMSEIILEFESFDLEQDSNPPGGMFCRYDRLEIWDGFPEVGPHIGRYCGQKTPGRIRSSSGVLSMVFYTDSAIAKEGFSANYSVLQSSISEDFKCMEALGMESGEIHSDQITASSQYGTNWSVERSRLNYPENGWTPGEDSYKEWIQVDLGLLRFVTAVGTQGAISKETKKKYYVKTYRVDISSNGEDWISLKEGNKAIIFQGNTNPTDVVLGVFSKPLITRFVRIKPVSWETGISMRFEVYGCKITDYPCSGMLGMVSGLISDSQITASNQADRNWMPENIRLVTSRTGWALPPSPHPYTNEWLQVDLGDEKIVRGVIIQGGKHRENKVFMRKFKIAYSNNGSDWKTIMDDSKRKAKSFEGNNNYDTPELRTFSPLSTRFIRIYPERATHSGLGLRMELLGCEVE

T2: Sema3AS-F with Nrp1_(1-4) (combination in the experiment with EDTA) (mouse, UniProt O08665 21-555; P97333 22-586)
T2 sequence (looked up) 1: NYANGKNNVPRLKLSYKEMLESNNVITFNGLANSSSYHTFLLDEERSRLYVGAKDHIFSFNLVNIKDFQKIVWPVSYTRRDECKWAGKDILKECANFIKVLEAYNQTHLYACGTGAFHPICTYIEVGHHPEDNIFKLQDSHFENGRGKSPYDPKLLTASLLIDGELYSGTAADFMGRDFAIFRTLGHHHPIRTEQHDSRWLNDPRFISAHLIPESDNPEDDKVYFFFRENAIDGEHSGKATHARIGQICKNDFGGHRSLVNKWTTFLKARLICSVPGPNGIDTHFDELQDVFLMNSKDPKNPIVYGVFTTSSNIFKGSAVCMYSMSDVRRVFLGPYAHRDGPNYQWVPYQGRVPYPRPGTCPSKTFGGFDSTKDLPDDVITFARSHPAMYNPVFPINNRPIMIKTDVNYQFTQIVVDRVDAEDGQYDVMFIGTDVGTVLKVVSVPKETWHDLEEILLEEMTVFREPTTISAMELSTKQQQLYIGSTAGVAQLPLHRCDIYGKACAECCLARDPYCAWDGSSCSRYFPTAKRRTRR
T2 sequence (looked up) 2: T1 sequence (looked up) with A52P, S53H

T3: PlxnA2_(1-4) F275N (mouse, UniProt P70207 35-703, F275N)
T3 sequence (looked up): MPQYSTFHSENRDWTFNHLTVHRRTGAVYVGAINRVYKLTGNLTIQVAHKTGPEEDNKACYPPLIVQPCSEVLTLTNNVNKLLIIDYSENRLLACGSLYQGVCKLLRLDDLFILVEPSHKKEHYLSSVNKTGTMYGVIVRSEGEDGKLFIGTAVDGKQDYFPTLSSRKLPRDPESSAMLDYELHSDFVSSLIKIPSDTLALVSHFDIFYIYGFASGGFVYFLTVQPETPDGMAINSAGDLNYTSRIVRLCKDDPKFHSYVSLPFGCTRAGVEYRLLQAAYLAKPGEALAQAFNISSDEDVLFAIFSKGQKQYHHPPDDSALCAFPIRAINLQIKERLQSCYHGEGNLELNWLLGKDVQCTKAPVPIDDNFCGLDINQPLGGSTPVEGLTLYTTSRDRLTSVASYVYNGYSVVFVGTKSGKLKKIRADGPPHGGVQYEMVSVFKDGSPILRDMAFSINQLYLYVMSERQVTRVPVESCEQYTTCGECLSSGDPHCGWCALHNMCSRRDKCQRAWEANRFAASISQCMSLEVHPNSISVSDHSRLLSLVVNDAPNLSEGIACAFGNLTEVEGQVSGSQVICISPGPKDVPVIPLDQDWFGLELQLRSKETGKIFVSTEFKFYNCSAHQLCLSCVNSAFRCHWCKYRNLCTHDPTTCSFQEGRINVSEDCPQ

B1: Sema3AS-P (mouse Sema3A residues 21-568, furin site mutated R551A and R555A) (domain or fragment, UniProt O08665 21-568, looked up)
chain: NYANGKNNVPRLKLSYKEMLESNNVITFNGLANSSSYHTFLLDEERSRLYVGAKDHIFSFNLVNIKDFQKIVWPVSYTRRDECKWAGKDILKECANFIKVLEAYNQTHLYACGTGAFHPICTYIEVGHHPEDNIFKLQDSHFENGRGKSPYDPKLLTASLLIDGELYSGTAADFMGRDFAIFRTLGHHHPIRTEQHDSRWLNDPRFISAHLIPESDNPEDDKVYFFFRENAIDGEHSGKATHARIGQICKNDFGGHRSLVNKWTTFLKARLICSVPGPNGIDTHFDELQDVFLMNSKDPKNPIVYGVFTTSSNIFKGSAVCMYSMSDVRRVFLGPYAHRDGPNYQWVPYQGRVPYPRPGTCPSKTFGGFDSTKDLPDDVITFARSHPAMYNPVFPINNRPIMIKTDVNYQFTQIVVDRVDAEDGQYDVMFIGTDVGTVLKVVSVPKETWHDLEEILLEEMTVFREPTTISAMELSTKQQQLYIGSTAGVAQLPLHRCDIYGKACAECCLARDPYCAWDGSSCSRYFPTAKARTRAQDIRNGDPLTHCS
B2: Sema3AS-P L353N P355S (domain or fragment, mouse, UniProt O08665 21-568, looked up)
chain: B1 chain with L333N, P335S
B3: PlxnA2_(1-4) (mouse PlxnA2 residues 35-703) (domain or fragment, UniProt P70207 35-703, looked up)
chain: T3 sequence (looked up) with N241F
B4: Nrp1_(1-4) (mouse Nrp1 residues 22-586) (domain or fragment, UniProt P97333 22-586, looked up)
chain: T1 sequence (looked up) with A52P, S53H

Legend:
Assay in all cases: SPR
Nrp1_(1-4) P73A H74S = molecular target: T1, Nrp1_(1-4) P73A H74S
[1] = molecular target: B4
[2] = molecular target: T2, Sema3AS-F with Nrp1_(1-4) (combination …)
PlxnA2_(1-4) F275N = molecular target: T3, PlxnA2_(1-4) F275N

B1: binds (Nrp1_(1-4) P73A H74S).

B2: binds [1].

B3: binds [2].

B4: binds (PlxnA2_(1-4) F275N).
